PMC4428629, “The Structure of an NDR/LATS Kinase–Mob Complex Reveals a Novel Kinase–Coactivator System and Substrate Docking Mechanism” (PLoS Biology, 2015)
Non-standard residues stand in square brackets, D forms with d. Residues, ends and D or L forms follow the SMILES beside them. No end group written: not given here. carboxyfluorescein = carboxyfluorescein label; pT = C[C@@H](OP(=O)(O)O)[C@H](N)C(=O)O

Experiments:
Cbk1(Y687A/T743E) = assay: Peptide kinase assay, Cbk1(Y687A/T743E); assay type: biochemical, Saccharomyces cerevisiae; conditions: for 32P incorporation into peptide, Average: Average of Rep 1-4, 100 μM peptide, 50 nM kinase, 40 μM ATP, 1 h
Experimental: (§1) For peptide kinase assays, reactions were performed in the presence of 50 nM Cbk1^251–756–Mob2, 40 μM ATP, 2 mM DTT, 5 mM MnCl2, 2 μCi γ-^32P-ATP, and 100 μM Docktide ([…]) or AKAPtide ([…]). Reactions were initiated by the addition of ATP. Samples were quenched after 1 h by the addition of a 5-μl sample to P81 paper (Whatman) and subsequent submersion in 75 mM phosphoric acid to remove background γ-^32P-ATP. After drying, signal was determined by Čerenkov counting in an LS 6500 scintillation counter (Beckman). Counts per minute was efficiency corrected and converted to femtomoles ^32P followed by conversion to total ATP (labeled and unlabeled). Significance was determined by an unpaired two-tailed Student’s t-test.
(§2) Supplementary file pbio.1002146.s003.xlsx: S3 Data Enzymological characterization of the effects of Cbk1 docking. Assay data from experiments that used γ-^32P-ATP in protein kinase reactions with synthetic substrate peptides from Ssd1 that either contained both the core Cbk1 docking motif and a Cbk1 phosphorylation consensus motif (Docktide) or contained a core Cbk1 docking motif mutated to abrogate binding to the kinase and a Cbk1 consensus motif (AKAPtide). These kinase assays were performed either with Cbk1(T743E) or with Cbk1(Y687A/T743E). The latter construct carries a mutation that eliminates docking motif association with the kinase. (XLSX) Click here for additional data file.

[1] = tested on: Cbk1^251–756–Mob2 (T743E); assay: Peptide kinase assay, WT Cbk1 (T743E); assay type: biochemical, Saccharomyces cerevisiae; conditions: for 32P incorporation into peptide, Average: Average of Rep 1-4, 100 μM peptide, 50 nM kinase, 40 μM ATP, 1 h
Experimental: as §1, §2

[2] = target: pepAce2, carboxyfluorescein-labelled (S. cerevisiae); assay: fluorescence polarisation; direct titration: protein titrated into 20 nM carboxyfluorescein-labelled peptide; 20 mM Tris (pH 8.0), 100 mM NaCl, 0.05% Brij35P, 2 mM DTT; quadratic binding equation
Cbk1^Δ730–756–Mob2 = target: T1, Cbk1^Δ730–756–Mob2 (Saccharomyces cerevisiae, UniProt P43563+P53894); assay: biochemical; assay type: binding
T1 construct: His6-Cbk1^251–756 was co-expressed with GST-Mob2 (full length or 45–287); His6 (N); made in house
T1 sequence (P43563 whole entry, stated change not applied, one chain of several): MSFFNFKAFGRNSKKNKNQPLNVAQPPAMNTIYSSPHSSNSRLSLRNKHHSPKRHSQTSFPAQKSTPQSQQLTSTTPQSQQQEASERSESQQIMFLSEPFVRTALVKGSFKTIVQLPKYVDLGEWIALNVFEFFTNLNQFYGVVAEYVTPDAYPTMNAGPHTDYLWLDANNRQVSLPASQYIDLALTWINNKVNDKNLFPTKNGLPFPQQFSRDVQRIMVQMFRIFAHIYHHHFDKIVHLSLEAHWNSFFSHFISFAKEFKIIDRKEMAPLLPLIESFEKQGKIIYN
Description: ND, not determined. […] (PDF) Click here for additional data file.

[3] = target: T2, Cbk1^352–756 kinase domain (S. cerevisiae, UniProt P53894 352-756); assay: pull-down; pull-down of Cbk1^352–756 by bead-bound Ace2 or Ssd1 docking motifs in competition with unbound Ace2^270–290; conditions: both partners purified
T2 construct: source: bacterially expressed, purified (Ni-NTA, glutathione Sepharose); not shown: His6, C-terminal, kept
T2 sequence (looked up): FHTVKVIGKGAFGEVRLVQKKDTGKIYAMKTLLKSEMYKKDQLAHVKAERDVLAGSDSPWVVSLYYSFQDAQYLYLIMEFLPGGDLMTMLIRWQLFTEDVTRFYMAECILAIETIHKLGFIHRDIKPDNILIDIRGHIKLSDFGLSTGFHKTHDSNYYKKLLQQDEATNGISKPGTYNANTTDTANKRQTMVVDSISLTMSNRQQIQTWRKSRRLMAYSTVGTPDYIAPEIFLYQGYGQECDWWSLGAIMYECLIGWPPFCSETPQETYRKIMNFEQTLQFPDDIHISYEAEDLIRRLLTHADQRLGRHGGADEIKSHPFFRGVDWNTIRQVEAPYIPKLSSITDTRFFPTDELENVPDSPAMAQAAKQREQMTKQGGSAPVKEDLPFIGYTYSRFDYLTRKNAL

[4] = target: T3, Cbk1^352–692 kinase domain (S. cerevisiae, UniProt P53894 352-692); assay: pull-down; MBP fusions on amylose beads incubated with 1 μM purified Cbk1 on ice for 15 min, washed 3× with PBS; GelCode Blue or immunoblot (His or pS570 antibodies); conditions: both partners purified
T3 construct: also called catalytic domain alone; source: bacterially expressed, purified (Ni-NTA, glutathione Sepharose); not shown: His6, C-terminal, kept
T3 sequence (looked up): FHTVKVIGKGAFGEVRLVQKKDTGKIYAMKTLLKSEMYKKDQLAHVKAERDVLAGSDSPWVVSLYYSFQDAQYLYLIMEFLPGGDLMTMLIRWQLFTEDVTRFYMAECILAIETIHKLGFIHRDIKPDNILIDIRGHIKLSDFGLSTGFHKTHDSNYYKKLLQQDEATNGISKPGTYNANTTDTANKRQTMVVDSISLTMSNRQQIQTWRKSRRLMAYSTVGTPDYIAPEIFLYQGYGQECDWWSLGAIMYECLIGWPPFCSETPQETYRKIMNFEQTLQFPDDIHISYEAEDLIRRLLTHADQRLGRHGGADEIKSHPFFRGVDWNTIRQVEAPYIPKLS

[5] = target: T4, Cbk1^251–756–Mob2 complex (S. cerevisiae, UniProt P53894 251-756; P43563 1-287); assay: FP
T4 chain 1: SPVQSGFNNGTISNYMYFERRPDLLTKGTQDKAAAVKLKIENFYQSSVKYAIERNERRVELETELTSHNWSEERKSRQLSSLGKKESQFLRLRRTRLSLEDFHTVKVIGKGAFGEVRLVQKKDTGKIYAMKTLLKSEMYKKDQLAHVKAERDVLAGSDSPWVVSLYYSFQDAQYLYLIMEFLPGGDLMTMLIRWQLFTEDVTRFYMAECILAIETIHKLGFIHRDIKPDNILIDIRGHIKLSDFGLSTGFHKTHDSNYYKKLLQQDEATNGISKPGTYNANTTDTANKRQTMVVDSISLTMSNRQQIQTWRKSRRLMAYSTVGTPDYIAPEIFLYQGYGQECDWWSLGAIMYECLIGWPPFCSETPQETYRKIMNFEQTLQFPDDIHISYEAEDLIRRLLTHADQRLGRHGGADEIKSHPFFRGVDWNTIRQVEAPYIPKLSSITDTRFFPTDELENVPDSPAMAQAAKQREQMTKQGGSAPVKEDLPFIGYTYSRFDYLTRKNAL
T4 chain 2: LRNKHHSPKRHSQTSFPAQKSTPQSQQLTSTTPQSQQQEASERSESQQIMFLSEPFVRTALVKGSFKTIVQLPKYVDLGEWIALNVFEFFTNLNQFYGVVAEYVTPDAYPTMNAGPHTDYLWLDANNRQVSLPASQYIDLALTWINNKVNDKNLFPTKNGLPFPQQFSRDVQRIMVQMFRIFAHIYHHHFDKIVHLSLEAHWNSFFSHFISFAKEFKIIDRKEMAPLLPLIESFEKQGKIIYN

Cbk1(F447A)–Mob2 complex = Cbk1(F447A)–Mob2 complex (S. cerevisiae, UniProt P53894 251-756; P43563 1-287, F447A); assay: FP
Chain of Cbk1(F447A)–Mob2 complex (P53894 251-756 F447A, chain 1 of 2, one chain of several): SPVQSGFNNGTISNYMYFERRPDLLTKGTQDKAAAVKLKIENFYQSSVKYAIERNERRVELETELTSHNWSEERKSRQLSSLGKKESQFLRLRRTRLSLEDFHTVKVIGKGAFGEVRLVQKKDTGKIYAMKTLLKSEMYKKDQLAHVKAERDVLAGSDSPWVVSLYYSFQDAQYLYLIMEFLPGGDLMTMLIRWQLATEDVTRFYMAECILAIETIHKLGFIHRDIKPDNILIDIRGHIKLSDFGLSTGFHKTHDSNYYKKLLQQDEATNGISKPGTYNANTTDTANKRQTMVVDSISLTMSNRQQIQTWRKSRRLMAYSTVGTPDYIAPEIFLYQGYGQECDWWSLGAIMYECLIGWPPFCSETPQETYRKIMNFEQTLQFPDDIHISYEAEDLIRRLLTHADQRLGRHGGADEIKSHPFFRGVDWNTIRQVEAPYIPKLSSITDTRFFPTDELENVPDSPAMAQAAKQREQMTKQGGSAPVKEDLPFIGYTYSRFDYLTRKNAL

Cbk1(F699A)–Mob2 complex = Cbk1(F699A)–Mob2 complex (S. cerevisiae, UniProt P53894 251-756; P43563 1-287, F699A); assay: FP
Cbk1(Y687A)–Mob2 complex = Cbk1(Y687A)–Mob2 complex (S. cerevisiae, UniProt P53894 251-756; P43563 1-287, Y687A); assay: FP
Chain of Cbk1(Y687A)–Mob2 complex (P53894 251-756 Y687A, chain 1 of 2, one chain of several): as the sequence (P53894 251-756 F447A, chain 1 of 2, one chain of several) above, with A197F, Y437A counted along it

Cbk1(W444A)–Mob2 complex = Cbk1(W444A)–Mob2 complex (S. cerevisiae, UniProt P53894 251-756; P43563 1-287, W444A); assay: FP
Chain of Cbk1(W444A)–Mob2 complex (P53894 251-756 W444A, chain 1 of 2, one chain of several): as the sequence (P53894 251-756 F447A, chain 1 of 2, one chain of several) above, with W194A, A197F counted along it

[6] = target: T5, Cbk1(D475A), residues 251-756, intact hydrophobic motif (S. cerevisiae, UniProt P53894 251-756, D475A); assay: crystal structure; Cbk1(D475A) or Cbk1(D475A/T743E) with Mob2, tags cleaved, 4–6 mg/ml, 2 mM AMPPNP, 2 mM MgCl2, 2 mM TCEP; microbatch under oil at 23°C; three crystal forms; conditions: both partners purified
T5 construct: crystallised with AMPPNP; also called Cbk1(HM-T); source: bacterially expressed with Mob2, purified (Ni-NTA, glutathione Sepharose, TEV cleavage, Resource S); not shown: His6, N-terminal, cleaved
T5 sequence (looked up): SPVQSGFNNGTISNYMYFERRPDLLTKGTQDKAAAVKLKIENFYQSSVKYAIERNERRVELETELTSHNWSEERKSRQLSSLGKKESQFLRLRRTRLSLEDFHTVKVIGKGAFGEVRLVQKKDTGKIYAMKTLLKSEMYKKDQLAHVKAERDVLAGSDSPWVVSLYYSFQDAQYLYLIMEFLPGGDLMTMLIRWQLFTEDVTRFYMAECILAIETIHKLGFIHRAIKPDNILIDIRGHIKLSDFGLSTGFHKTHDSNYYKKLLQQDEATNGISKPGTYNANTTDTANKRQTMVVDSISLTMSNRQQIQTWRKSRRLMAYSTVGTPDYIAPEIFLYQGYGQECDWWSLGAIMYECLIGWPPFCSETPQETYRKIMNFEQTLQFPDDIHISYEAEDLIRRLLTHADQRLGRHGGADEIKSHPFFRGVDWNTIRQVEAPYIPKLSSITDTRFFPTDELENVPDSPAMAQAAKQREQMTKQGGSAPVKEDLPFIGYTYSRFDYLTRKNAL

[7] = target: T6, Cbk1(D475A/T743E), residues 251-756 (S. cerevisiae, UniProt P53894 251-756, D475A | T743E); assay: as above; conditions: both partners purified
T6 construct: two crystal forms (A, 4.5 Å; B, 3.6 Å); also called Cbk1(HM-E); Cbk1(T743E); source: bacterially expressed with Mob2, purified (Ni-NTA, glutathione Sepharose, TEV cleavage, Resource S); not shown: His6, N-terminal, cleaved
T6 sequence (looked up): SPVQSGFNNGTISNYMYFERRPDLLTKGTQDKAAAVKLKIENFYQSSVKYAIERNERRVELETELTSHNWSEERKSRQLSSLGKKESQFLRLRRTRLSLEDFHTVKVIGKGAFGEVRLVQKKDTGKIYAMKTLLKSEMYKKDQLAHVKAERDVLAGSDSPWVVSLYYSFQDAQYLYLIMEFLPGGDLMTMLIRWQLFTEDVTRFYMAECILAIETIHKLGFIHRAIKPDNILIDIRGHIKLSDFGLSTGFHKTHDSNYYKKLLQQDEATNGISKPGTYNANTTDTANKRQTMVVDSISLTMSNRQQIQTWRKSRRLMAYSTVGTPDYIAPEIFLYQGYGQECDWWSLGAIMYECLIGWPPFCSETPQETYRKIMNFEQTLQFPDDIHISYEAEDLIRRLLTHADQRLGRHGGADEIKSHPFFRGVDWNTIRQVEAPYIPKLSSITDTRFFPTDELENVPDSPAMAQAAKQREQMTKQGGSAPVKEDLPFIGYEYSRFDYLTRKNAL

In the case of “CDAKAPPPPNAHGGHRRATSN [AKAPtide, Ssd1-based peptide with mutated docking motif AKAP and Cbk1 consensus site]”, the “32P incorporation into peptide, Average” value (Cbk1(Y687A/T743E)) is reported as 45.5 fmol and the “32P incorporation into peptide, Average” value [1] is reported as 57.4 fmol.

With “Cbk1^251–756–Mob2 complex (from UniProt P53894 251-756; P43563 1-287)” the Kd [2] was 6 µM.

With “CDFKFPPPPNAHGGHRRATSN [Docktide, Ssd1 (210–229)-based peptide with docking motif FKFP and Cbk1 consensus site]” the “32P incorporation into peptide, Average” value (Cbk1(Y687A/T743E)) was 45.9 fmol, the “effect of WT docking motif on phosphorylation” value (Cbk1(Y687A/T743E); Cbk1(Y687A)) was “loses this enhancement” and the “32P incorporation into peptide, Average” value [1] was 76.8 fmol. The “effect of WT docking motif on phosphorylation” value ([1]; relative to peptide with mutant docking motif (AKAPtide)) was “enhances phosphorylation by WT Cbk1”.

CC[C@H](C)[C@H](N)C(=O)NCC(=O)N[C@@H](Cc1ccc(O)cc1)C(=O)N[C@H](C(=O)N[C@@H](Cc1ccc(O)cc1)C(=O)N[C@@H](CO)C(=O)N[C@@H](CCCNC(=N)N)C(=O)N[C@@H](Cc1ccccc1)C(=O)N[C@@H](CC(=O)O)C(=O)N[C@@H](Cc1ccc(O)cc1)C(=O)O)[C@@H](C)O [pepHM] (H-IGYTYSRFDY-OH) showed a Kd (Cbk1^Δ730–756–Mob2) of ~33 µM.

B1: unbound Ace2^270–290 (domain or fragment, S. cerevisiae, UniProt P21192 270-290, looked up)
chain: NAIIVTTNSANGGYQFPPPTL
B1: binds [3].

B2: Ace2^270–290 docking motif, MBP fusion (domain or fragment, S. cerevisiae, UniProt P21192 270-290, looked up)
chain: NAIIVTTNSANGGYQFPPPTL
notes: Ace2 of budding yeast, residues 270-290; also called WT Ace2 (two glycine residues)
B2: binds [3]; binds [4].

B3: pepHM-P, carboxyfluorescein-labelled (peptide)
peptide: IGY[pT]YSRFDY-carboxyfluorescein
Molecule B3 has a Kd [5] of 20 µM, a Kd (Cbk1(F447A)–Mob2 complex) of 33 µM and a Kd (Cbk1(F699A)–Mob2 complex) of 28 µM. For the same molecule, the Kd (Cbk1(Y687A)–Mob2 complex) was 22 µM and the Kd (Cbk1(W444A)–Mob2 complex) was 24 µM.

B4: Mob2, residues 45-287 (natural protein, S. cerevisiae, UniProt P43563 45-287, looked up)
chain: LRNKHHSPKRHSQTSFPAQKSTPQSQQLTSTTPQSQQQEASERSESQQIMFLSEPFVRTALVKGSFKTIVQLPKYVDLGEWIALNVFEFFTNLNQFYGVVAEYVTPDAYPTMNAGPHTDYLWLDANNRQVSLPASQYIDLALTWINNKVNDKNLFPTKNGLPFPQQFSRDVQRIMVQMFRIFAHIYHHHFDKIVHLSLEAHWNSFFSHFISFAKEFKIIDRKEMAPLLPLIESFEKQGKIIYN
notes: the crystallised construct begins at 45 (N-terminal Mob2 region 45-110 not seen in the density); source: bacterially expressed with Cbk1, purified (Ni-NTA, glutathione Sepharose, TEV cleavage, Resource S); not shown: GST, N-terminal, cleaved
B4: binds [6]; binds [7].

B5: pepSSD1, carboxyfluorescein-labelled (peptide)
peptide: carboxyfluorescein-TTEQSDFKFP
With B5 the Kd [5] was 6 µM, the Kd (Cbk1(F699A)–Mob2 complex) was 4.9 µM and the Kd (Cbk1(Y687A)–Mob2 complex) was 36 µM. For the same molecule, the Kd (Cbk1(W444A)–Mob2 complex) was 58 µM.
